PMC10616211

Tests used:
[1] = biological target: cytosolic fragment of MFN2 (modified, truncated human MFN2, residues 1–19 and 401–705 deleted) (human) (UniProt O95140); experiment: ELISA; as the pH 6.2 plate assay, with purified DID as competitor (1 µM in the results; wells treated with 2 µM DID in the methods)
[2] = biological target: cytosolic fragment of MFN2 (modified, truncated human MFN2, residues 1–19 and 401–705 deleted) (human) (UniProt O95140); experiment: ELISA; MFN2 coated on plates (0.1 µM); HEK293T lysate with DIAPH1-eCFP added in TBS pH 6.2, overnight 4 °C; anti-GFP-HRP; one site total and nonspecific binding fit
[3] = biological target: cytosolic fragment of MFN2 (modified, truncated human MFN2, residues 1–19 and 401–705 deleted) (human) (UniProt O95140); experiment: ELISA; MFN2 coated on plates (0.1 µM); HEK293T lysate with DIAPH1-eCFP added in TBS pH 7.2, overnight 4 °C; anti-GFP-HRP; one site total and nonspecific binding fit

DIAPH1-eCFP, sequence (O60610 whole entry, the tested form may be a part): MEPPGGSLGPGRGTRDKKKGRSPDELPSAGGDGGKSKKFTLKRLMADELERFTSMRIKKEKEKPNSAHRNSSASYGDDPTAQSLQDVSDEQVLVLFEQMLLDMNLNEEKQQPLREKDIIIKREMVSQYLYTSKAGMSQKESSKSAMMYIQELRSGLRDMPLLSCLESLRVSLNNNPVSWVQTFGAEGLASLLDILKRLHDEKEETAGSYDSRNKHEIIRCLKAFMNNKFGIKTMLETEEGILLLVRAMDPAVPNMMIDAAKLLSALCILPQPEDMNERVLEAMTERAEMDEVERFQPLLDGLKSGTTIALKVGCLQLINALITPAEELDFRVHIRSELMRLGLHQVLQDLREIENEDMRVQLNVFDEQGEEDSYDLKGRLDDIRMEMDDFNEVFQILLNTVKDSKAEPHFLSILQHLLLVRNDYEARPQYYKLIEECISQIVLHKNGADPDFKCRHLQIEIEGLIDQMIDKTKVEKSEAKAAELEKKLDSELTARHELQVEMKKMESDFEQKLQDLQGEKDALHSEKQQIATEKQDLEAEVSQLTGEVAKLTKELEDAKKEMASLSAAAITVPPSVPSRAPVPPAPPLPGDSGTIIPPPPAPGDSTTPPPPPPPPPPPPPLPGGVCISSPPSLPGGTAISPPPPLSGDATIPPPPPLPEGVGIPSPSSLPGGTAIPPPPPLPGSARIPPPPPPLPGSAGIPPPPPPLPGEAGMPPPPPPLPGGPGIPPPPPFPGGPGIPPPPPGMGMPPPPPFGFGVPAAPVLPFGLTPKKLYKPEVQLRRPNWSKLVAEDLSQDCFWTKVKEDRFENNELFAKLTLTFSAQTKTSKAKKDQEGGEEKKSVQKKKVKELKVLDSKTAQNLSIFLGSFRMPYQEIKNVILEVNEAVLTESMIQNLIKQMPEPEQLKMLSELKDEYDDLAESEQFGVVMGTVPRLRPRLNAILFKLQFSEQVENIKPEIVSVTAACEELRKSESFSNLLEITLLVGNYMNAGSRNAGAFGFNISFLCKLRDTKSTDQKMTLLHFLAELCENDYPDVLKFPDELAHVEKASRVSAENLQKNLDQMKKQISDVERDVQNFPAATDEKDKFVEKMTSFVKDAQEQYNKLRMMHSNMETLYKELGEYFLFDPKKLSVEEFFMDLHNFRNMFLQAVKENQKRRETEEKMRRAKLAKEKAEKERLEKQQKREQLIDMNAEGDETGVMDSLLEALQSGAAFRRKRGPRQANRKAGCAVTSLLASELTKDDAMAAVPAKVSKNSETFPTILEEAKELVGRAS

KD in the presence of 1 µM DID [1]: 0.22 nM
Kd [2]: 0.01 nM
Kd [3]: 0.7 nM
Substance: DIAPH1-eCFP (from UniProt O60610 1-1272) (natural protein)
